What was measured:
[1] = target: ETE/P186G mutant (Staphylococcus aureus); assay: not stated; shown in Figure S5 (not shown); the methods tell SEC of ETE/P186G in 20 mM MES pH 7.0, 150 mM NaCl and BN-PAGE of peak fractions
[2] = target: Staphylococcus aureus exfoliative toxin E (Staphylococcus aureus); assay: SEC; Superdex G75 10/300 GL, 0.7 mL/min; several buffers, NaCl concentrations and pH values (among them 20 mM MES pH 7.0, 150 mM NaCl); BSA (~66 kDa) and bovine beta-trypsin (~24 kDa) as size controls; absorbance at 230 nm
[3] = target: Staphylococcus aureus exfoliative toxin E (Staphylococcus aureus); assay: SAXS; 5 mg/mL ETE in 20 mM MES pH 7.0, 150 mM NaCl, 25 °C; pair distance distribution by indirect Fourier transform
[4] = target: Staphylococcus aureus exfoliative toxin E (Staphylococcus aureus); assay: native gel or EMSA; BN-PAGE 15%, 30 ug protein, running buffer 25 mM Tris pH 8.3, 192 mM glycine; BSA monomer and bovine beta-trypsin as markers; Coomassie stain

Substance | stoichiometry N [1] | stoichiometry N [2] | stoichiometry N [3] | stoichiometry N [4]
ETE/P186G mutant (enzyme) | 2 | – | – | –
Staphylococcus aureus exfoliative toxin E (enzyme) | – | 2 | 2 | 2

Reference: PMC9456352
